{"source": "paper PMC9505750", "conditions_in_all_cases": "remark: other sources report otherwise", "key": {"[1]": {"target": "full-length wild-type APOBEC3G (human), Q9HC16", "test": "SEC-SAXS; A3Gfl 2.5 mg/mL with the 40-mer ssDNA CCdZ-T30-oligo at a 1 to 2 molar ratio; SEC-SAXS, 25 °C, 50 mM phosphate pH 6.0, 200 mM NaCl, 2 mM β-ME, 5% glycerol, 200 µM Na2-EDTA; Gaussian decomposition"}, "[2]": {"target": "full-length wild-type APOBEC3G (human), Q9HC16", "test": "SEC-SAXS; ligand-free A3Gfl; SEC (Superdex 200 Increase 5/150 GL) with co-flow SAXS, 25 °C, 2.5 mg/mL A3Gfl loaded (about 1.3 mg/mL after SEC), 50 mM phosphate pH 6.0, 200 mM NaCl, 2 mM β-ME, 5% glycerol, 200 µM Na2-EDTA; species separated by SVD/EFA and Gaussian decomposition"}, "[3]": {"target": "full-length wild-type APOBEC3G (human), Q9HC16", "test": "SEC-SAXS; ligand-free A3Gfl; SEC (Superdex 200 Increase 5/150 GL) with co-flow SAXS, 25 °C, 2.5 mg/mL A3Gfl loaded (about 1.3 mg/mL after SEC), 50 mM phosphate pH 6.0, 200 mM NaCl, 2 mM β-ME, 5% glycerol, 200 µM Na2-EDTA; species separated by SVD/EFA and Gaussian decomposition", "remark": "listed apart in the source"}}, "data": [{"binder": "full-length wild-type APOBEC3G, Q9HC16 1-384 (enzyme) MKPHFRNTVERMYRDTFSYNFYNRPILSRRNTVWLCYEVKTKGPSRPPLDAKIFRGQVYSELKYHPEMRFFHWFSKWRKLHRDQEYEVTWYISWSPCTKCTRDMATFLAEDPKVTLTIFVARLYYFWDPDYQEALRSLCQKRDGPRATMKIMNYDEFQHCWSKFVYSQRELFEPWNNLPKYYILLHIMLGEILRHSMDPPTFTFNFNNEPWVRGRHETYLCYEVERMHNDTWVLLNQRRGFLCNQAPHKHGFLEGRHAELCFLDVIPFWKLDLDQDYRVTCFTSWSPCFSCAQEMAKFISKNKHVSLCIFTARIYDDQGRCQEGLRTLAEAGAKISIMTYSEFKHCWDTFVDHQGCPFQPWDGLDEHSQDLSGRLRAILQNQEN", "values": [{"measurement": "stoichiometry N", "setting": "[1]", "value": 4}, {"measurement": "stoichiometry N", "setting": "[2]", "value": 4}, {"measurement": "stoichiometry N", "setting": "[3]", "value": 2}]}]}
